Experimental data: patent publication US20240093191A1, “COMPOSITIONS AND METHODS FOR TREATING DISEASE ASSOCIATED WITH DUX4 OVEREXPRESSION” (RESEARCH INSTITUTE AT NATIONWIDE CHILDREN'S HOSPITAL, priority 2021, published 2024)

B1: U6.mir-675: U6 promoter-driven mir-675 expression plasmid with 40 nt 5' and 47 nt 3' flanking sequences (nucleic acid)
DNA: GACGCCGCCATCTCTAGGCCCGCGCCGGCCCCCTCGCACAGACTTGTGGGAGAAGCTCGGCTACTCCCCTGCCCCGGTTAATTTGCATATAATATTTCCTAGTAACTATAGAGGCTTAATGTGCGATAAAAGACAGATAATCTGTTCTTTTTAATACTAGCTACATTTTACATGATAGGCTTGGATTTCTATAAGAGATACAAATACTAAATTATTATTTTAAAAAACAGCACAAAAGGAAACTCACCCTAACTGTAAAGTAATTGTGTGTTTTGAGACTATAAATATCCCTTGGAGAAAAGCCTTGTTTGCGTTTAGTGAACCGTCAGATGGTACCGTTTAAACTCGAGCCCAGGGTCTGGTGCGGAGAGGGCCCACAGTGGACTTGGTGACGCTGTATGCCCTCACCGCTCAGCCCCTGGGACTAGAGCGGCCGCCACAGCGGGGAGATCCAGACATGATAAGATACATTTTTT
B2: H1.mir-675: commercially available H1 promoter mir-675 expression plasmid (SBI Biosciences) (nucleic acid)
DNA: GAACGCTGACGTCATCAACCCGCTCCAAGGAATCGCGGGCCCAGTGTCACTAGGCGGGAACACCCAGCGCGCGTGCGCCCTGGCAGGAAGATGGCTGTGAGGGACAGGGGAGTGGCGCCCTGCAATATTTGCATGTCGCTATGTGTTCTGGGAAATCACCATAAACGTGAAATGTCTTTGGATTTGGGAATCTTATAAGTTCTGTATGAGACCACCCCCCAGGGTCTGGTGCGGAGAGGGCCCACAGTGGACTTGGTGACGCTGTATGCCCTCACCGCTCAGCCCCTGGGGAATTCTTCGATTCTGCTTTTTT

Legend:
DUX4-mir-675Res = test: Western blot against mir-675-resistant DUX4 construct (CMV.DUX4-mir-675Res) in HEK293 cells; type: cell-based, human; conditions: FIG. 20; blinded western blot
Description: Sequence Generation and Cloning. All miRNAs used in this study were designed as previously reported in [Wallace et al., Mol. Ther. Methods Clin. Dev. 8:121-130 (2018)]. All miDUX4s were cloned into the mir-30 based/U6 construct as previously described [Wallace et al., Mol. Ther. 20:1417-23 (2012)]. MicroRNA-675 sequence was obtained from the miRBase database (www.mirbase.org), and all mir-675 constructs used in this study were cloned into an expression plasmid downstream of an RNA polymerase III class of promoters (U6 or H1 promoters). The sequence of the stem loop structure of mir-675, mir-675-5p and mir-675-3p constructs is shown in FIG. 17A-B. The CMV.H19 construct was purchased from OriGene. The psi2-DUX4FI was PCR amplified using the AAV.CMV.DUX44V5 construct as template, and the following primers: forward primer: […] (SEQ ID NO: 127), and reverse primer: […] (SEQ ID NO: 128). The PCR product was then cloned into a previously designed psicheck2 (psi2) SD5 mutant (Renilla luciferase have the SD5 mutant) plasmid [Ansseau et al., Plos One 10: e0118813 (2015)] using XhoI/SpeI restriction sites and the psi2.SD5 mutant-DUX4 3′UTR plasmid backbone. […] In addition, this plasmid contains a cytomegalovirus promoter (CMVp)-driven DUX4 full-length sequence encompassing the DUX4 open reading frame (DUX4 ORF), the DUX4 3′UTR sequence (pLAM sequence). […]

mir-675-5p = test: Small-transcript northern blot of mir-675 processing in HEK293 cells; type: cell-based, human; conditions: for mature mir-675-5p bands on northern blot: HEK293, anti-mir-675-5p biotinylated probe
Description: Small-Transcript Northern Blots. […] (SEQ ID NO: 148)).

Molecule | effect on DUX4 protein level of mir-675-resistant DUX4 construct (DUX4-mir-675Res) | mature mir-675-5p bands on northern blot (mir-675-5p) | mature mir-675-5p produced at 48h versus 24h post-transfection (mir-675-5p) | mature mir-675-5p abundance relative to U6.mir-675-generated (mir-675-5p; 24 h post-transfection) | mature mir-675-5p abundance relative to U6.mir-675-generated (mir-675-5p; 48 h post-transfection)
B1 | not able to reduce DUX4 protein level | low levels of the mature mir-675-5p |  |  | 
B2 | not able to reduce DUX4 protein level | abundant levels of the mature mir-675-5p | 1.4 fold | 13 fold | 23 fold
